Measured values published in the DeepSol protein solubility set.

Test: soluble on expression in E. coli; label from the status in PepcDB or PDB records

Sequence	soluble on expression in E. coli
MGSDKIHHHHHHMEEIVLFHTNDLHSHFENWPKIRRLVKAKRSLYQKEGKTVVTIDLGDFSDRCHPLTEATDGRANVAIMNTLAYDLVTIGNNEGIGNSKKQLEHLYDQATFEVVLANLEEPKTQTLPDFCQAYKIMTTKEGTKLGFIGLTAPFPLTYNPNGWTIKQVEAVLPQLITEVAPQCDVLILLSHLGIDTDFMIAANYPEIQVILGSHTHHLFKDGEKINHVQLAAAGKYGQYIGEVHLFVDADTKQVTSYAKTIETASLEEQATDAKEIAGYLTEGHRLLQAQQIAQIPETLSTDLRQPHAFITVALKALKEAGQTEAAVLNNGLFLADLPEGIINADQLHEALPHPMHLIKVTLKGSDMSRLIREMEKSRQFLRKFPIRGMGFRGKIFGELCYDGIRFEPNSQTVFWQGKPIQPEQKYTLTTVDHFQFVPFFPTIELVGEVEFLFPDVLRTVVANYLHAHYPIK	not soluble
MGSDKIHHHHHHMTENFWRELPRPFFVLAPMEDVTDVVFRHVVSEAGRPDVFFTEFTNSESYCHPDGKDSVRGRLTFTEDEQPIVAHIWGDKPENFRKMSIGMAELGFKGLDINMGCPVPNVAGNGKGSGLICRPAVAAELIQAAKAGGLPVSVKTRLGYTDVDEWREWLTHILKQDIANLSIHLRTRAEMSKVDAHWELIPEIKKLRDEVAPDTLLTINGDIPDRQTGLKLAEQYGVDGIMIGRGIFTNPFAFEKEPKEHSSKELLDLLRLHLDLHDEYSKEEARPYKPLPRFFKIYLRGFRGASELRNQCMNTKSTDEVRALLDDFERKYLDGIE	not soluble
MPRLVVNSIYASGAQYQGSSSKLYVNVSNLGTENAYNVLIQVYVNGKVYGSTTVSEIKAGASDNVSINWVPPTSGKVSVYATASVNSEPRSFVTAGALTQTVSVNPLEHHHHHH	not soluble
MGSDKIHHHHHHMDTQRGSLRGKAHKARLKMTPNGRRQLLLERGAAFSKNRTPGLKHVDRHTIVDSDGLSIHTYMVGHAENATATVVFIHGFTLAAEVYYMQVDYLQTFYPNIKSVLIDARGHGATGQIRPELCTIEGTANDVLAAIHEHAPTGPLILVGHSLGGLTALNLVKRADHSLRKRIVGMVLVATSIESLSTQGLPQVLASPLADNIKNAVEAAPNDAQKFRQYATTFLAPTLATAVFQRDTNDEVIDFHAAMIHETPLDTFVGFFDDLQEHDELDAAPALEGLKGYVLAGELDDVTPISQADRICEVWPGARLQIAEGAGHMLPLEAPGILNNAIGNILDGLG	not soluble
ILKELENLSPEEAAHQKAVVETLLQEDPWRVAKMVKSYLQQHNIPQREVVDTTGLNQSHLSQHLNKGTPMKTQKRAALYTWYVRKQREVAQQFTHAGQGGLIEEPTGDELPTKKGRRNRFKWGPASQQILFQAYERQKNPSKEERETLVEECNRAECIQRGVSPSQAQGLGSNLVTEVRVYNWFANRRKEEAFR	soluble
MFSRDRVAYTDLTVNSACDDLFPGVEDVDAQATLQLRAALDAFEEGVFEYHNRASQAGEADAGKHSARGGGQRRTRREKIYASRIPEDRQFFRPVDQQSAEWAAFKPHLWLRGRRIHSADAAAHAGQHHHLHHHTPAGAPQAQQPALAASPVHAGAGLPAGTAGAGADAGAGAGTGAGLELRGTRAVLAPPPPEAEDAADPDRECVLVDHGDFAESLAVQWDAWEAAATRGGPQALRRRRGRPRDEKAVAVGLPPVEPRSAILYDVAEELLPDVWQRLAPLLAPLLARVAEERKKRPASSAAAAFRGAGAGGGGGGGLGGGSFGGGDFEILTFS	not soluble
MRSLLIALAATVALSLPARADEVTVAVTAIVEHPALDAARDGVKDALAAAGYKEGENLKFIYESAQGNPATAAQIARQFAGEAPSVIVPISTPSAQAVVSSTRDIPVVFTAVSDPLGAQLVKDMEKPGGNVTGLSDLSPVAEHVALIKEILPNVKTIGYLYNSGEANSVSLLAVLKEEAEKAGLSVIESAATKSAEVQGAARALVGRADAIYIPTDNTIISALEGAVAVAEESKLPLFTADTDSVSRGAVAALGFNYYDVGKQTGEVVVRVLKGENPGDIAVKVAAGTDLVINKGAATRMGVTLPESVVGRATRTIE	not soluble
MNMPKRYSEMTPHELREEIGALKEQAVKAEQLGIVNEFDVLMRKMAMARAYMTDINKFHIGETYELVEEPGVLFKITYFNGVFAWGYKQNDNEEIGIPISLLQEK	not soluble
SNAMPLPKSLKYGDTIGIYSPSSPVTYTSPKRFERAKSYLLQKGFHILEGSLTGRYDYYRSGSIQERAKELNALIRNPNVSCIMSTIGGMNSNSLLPYIDYDAFQNNPKIMIGYSDATALLLGIYAKTGIPTFYGPALVPSFGEFEPFVDDTYKYFLETLLHDQALPYNIKQPLFWSDEFINWEEKTKEKELRPNNWISVTNGQATGRVIGGNLNTIQGIWGSPYMPCIQEGDILFIEDSSKDAATIERSFSFLKINGVFDKVSGIILGKHEQFDDCGTNRKPYEILLEVLQNQRIPLLADFDCCHTHPMITMPIGVQVKMDATNKTIHILEKWKI	soluble
MAHHHHHHMQQSSLVRRNVFHYTTVLTACTRAGQMDAAMMVFRQMKANKVKPNVYTYTTLINGCANAEKLDLALRIFAEMRLVEVPPNVKTMTALISVCSRCGQWKKGFQVLDQCEDLFIAPNALTYTAAMDGCRRAGVCTPAIALLEARMTDPSQVRPNEVTYNTVLGACAAAKDHKAALRVYARMVADGYEPIEYTRELLREVFRGTSLDGLADKLMVRVRTSKWEAYVPDSDPATALRAAQEGG	not soluble
MAGDPMVTQNKKILIITGSFGNGHMQVTQSIVNQLNDMNLDHLSVIEHDLFMEAHPILTSICKKWYINSFKYFRNMYKGFYYSRPDKLDKCFYKYYGLNKLINLLIKEKPDLILLTFPTPVMSVLTEQFNINIPVATVMTDYRLHKNWITPYSTRYYVATKETKQDFIDVGIDPSTVKVTGIPIDNKFETPINQKQWLIDNNLDPDKQTILMSAGAFGVSKGFDTMITDILAKSANAQVVMICGKSKELKRSLTAKFKSNENVLILGYTKHMNEWMASSQLMITKPGGITITEGFARCIPMIFLNPAPGQELENALYFEEKGFGKIADTPEEAIKIVASLTNGNEQLTNMISTMEQDKIKYATQTICRDLLDLIGHSSQPQEIYGKVPLYARFFVKLEHHHHHH	not soluble
SLRHFGKRLRVSSSQPFRRSFNPKGEPMSTQIFVNLPVKNLNQSIEFFTQLGFQFNSQFTDETATCMIVSESIFVMLLTHEKFKMFTPKEICDATKSTEVLVCLSFDSREQVDEMVRLAVTAGGTTYNEPQDHGFMYGHGFADLDGHIWEIIYMEPSAINLGEG	soluble
MGSDKIHHHHHHMQLLGPTSNTFISQRLRLHYVDWGNADKPPLLLVHGGRDHCRSWDWTAEALREDWHIIALDHRGHGDSQWTQDGNYRTMDLVYDVAQLIHQLDLAPVTIVSHSWGANTSLRYAGLFPENVRKIVAIEGLFPTPEREALMKDVPFARRVREFIVEKRKAAGRLPRRYATLEDAYARMKGENPYLTDAQARHLTLHGINRNEDGTFSWKFDPHLNVDGAPYDISTDQRNELWGAITCPTLLLNGADSWAGNPDRNGMAQHFRNAQVVEFENAGHWLHHDQFDRFIATLRDFL	not soluble
MQNIHKIKQDMCDIGRRIYNRQFAAANDGNITVRVSENEVLCTPTMHCKGYLTPDDISMIDMTGKQIAGRKKRSSEALLHLEIYKQRADIKSVVHCHPPHATAFAIAREPIPQCILPEVEVFLGDVPITKYETPGGQAFADTIIPFVEKTNVMILANHGTVSYGESVERAYWWTEILDSYCRMLLLAKQLGNVSYLDETKSRELLELKDKWGFKDPRNTSEYEDCDICANDIFRDSWKDSGVERRAFAPPPPIKTSGSASSAPAGVDEEQLVKLITNEVMRQMKASS	not soluble
MNACVSVVCYKSKTLSNGENPLMLQVSKGGKRKYQSLGISINPKYWDFTRNKPKPNCPNKEYIQKIILDKQRELQQRMLELNSEQKEYTTTTLLNNENTKFELKTVSMFYKELIEQYTREDKCGNRLIYKGSFNSLKVFTNGKLDIPFNEIDIAWLNKYEKWLRSKGNRETTISLLFRTLRSAYNKAIKAKCARKSDYPFDDYKINKFDTTTQKRAIAKTDVLKFTTEVQPIGKQQYMELSKDIFVFSYLCGGINFTDIANLTNENIQNGRLHYIRQKTKKPIKIGIPQEAMQIIEKYSKESKG	not soluble
MGSDKIHHHHHHMSTDKLAIIAVTERGRDLAITLTKTVAATIFVPEKHCTEQTNSLTPDFGTAMREIFTKYQALICIMATGIAVRTLAPVIEDKLSDPAVLVMDEHGKFIISLLSGHVGGANELTERIATITGGAAVITTATDRANVAAIDNIAKQLNGYLPDFKATTKRINGLLAAGKEVGLYIDEPLEIDTRGFTMEEVSPQVYISTKYKLQVATHERIQLVPKQFILGVGCRKGVSAETIDAAFTHFCEQENIHPRAFREIHSITLKAEEPAILHLAEKWHVPFIVHPAEELQTVAGKYPTSAFVQKTVQVGNVALSSADIGSNGNVVTSRFAENGVTFAAGKLTKNSEVAK	not soluble
MTKRLFLPEWAPQEAVQLTWPHDRTDWAYMLDEVETCFVRIATAILRHERLIVVCPDRKRVFGLLPPELHHRLYCFELPSNDTWARDHGGISLLADGRPMIADFAFNGWGMKFAAHHDNLITRRLHALGLFAEGVTLDNRLAFVLEGGALETDGEGTLLTTDSCLFEPNRNAGLSRTAIIDTLKESLGVSRVLSLRHGALAGDDTDGHIDTLARFVDTRTIVYVRSEDPSDEHYSDLTAMEQELKELRRPDGQPYRLVPLPMAEALYDGADRLPATYANFLIINGAVLVPTYDSHLDAVALSVMQGLFPDREVIGIDCRPLVKQHGSLHCVTMQYPQGFIRLEHHHHHH	soluble
MAFNQRTVVMIGPGEHYVTAKNEVIKTLLGSCVAVCLYDPKAQVIGMNHFLLAADRRKFTHFLDSRAGYYGVHAMEILINAMLKRGAQRKYLQSKIFGGANVLSLCADNILNHYDIGGMNIDFVRHFLQRERIPIISEDIGGHCGRVIYFDPTDYSVYRSLIEHKYEEIASLQDEEYRYFNQASEDIHSSGVPVVIWSD	soluble
MNSTNSGPPDSGSATGVVPTPDEIASLLQVEHLLDQRWPETRIDPSLTRISALMDLLGSPQRSYPSIHIAGTNGKTSVARMVDALVTALHRRTGRTTSPHLQSPVERISIDGKPISPAQYVATYREIEPLVALIDQQSQASAGKGGPAMSKFEVLTAMAFAAFADAPVDVAVVEVGMGGRWDATNVINAPVAVITPISIDHVDYLGADIAGIAGEKAGIITRAPDGSPDTVAVIGRQVPKVMEVLLAESVRADASVAREDSEFAVLRRQIAVGGQVLQLQGLGGVYSDIYLPLHGEHQAHNAVLALASVEAFFGAGAQRQLDGDAVRAGFAAVTSPGRLERMRSAPTVFIDAAHNPAGASALAQTLAHEFDFRFLVGVLSVLGDKDVDGILAALEPVFDSVVVTHNGSPRALDVEALALAAGERFGPDRVRTAENLRDAIDVATSLVDDAAADPDVAGDAFSRTGIVITGSVVTAGAARTLFGRDPQ	soluble
METADTYTIVLTERNMGYAGQFYMVSKEGIGEAPISVGSGYGNPLMFSIKAVGSVTKGIMNDPYGEIGIRGPYGNVWPWKSYEHVVAIAGGIGIPPIKALIEDMQGHTSLDKLTVLYGARSPSDIVYRSEIETWKEEMDFRITVDKGDENWRGHVGVVTTLVPEIKEYNHGAAFVIGPPVMMKFSVKSLLDAGFAEDNIYLSLERRMECGIGVCGHCNIGRWYACEDGPIFKYSDTKEEPELFL	not soluble
MKDLKKIESYLDKLRIKEKDGEERKIYAEVLDGRTLKTLYKLSAKGYITAMGGVISTGKEANVFYADGVFDGKPVAMAVKIYRIETSEFDKMDEYLYGDERFDMRRISPKEKVFIWTEKEFRNLERAKEAGVSVPQPYTYMKNVLLMEFIGEDELPAPTLVELGRELKELDVEGIFNDVVENVKRLYQEAELVHADLSEYNIMYIDKVYFIDMGQAVTLRHPMAESYLERDVRNIIRFFSKYGVKADFEEMLKEVKGE	soluble
